The values below come from patent US20100279930A1 (published 2010).

Like-named read-outs stand apart in the source and are kept apart here.

Common to all, as to assay: 125I-PP displacement
Assay [1] deals with T1, human Y4 receptor (human, UniProt P50391 1-375).
Assay [2] deals with T1, human Y4 receptor. The source holds these as a separate data set.
The target of assay [3] is T1, human Y4 receptor. The source holds these as a separate data set.

T1 sequence (P50391 whole entry): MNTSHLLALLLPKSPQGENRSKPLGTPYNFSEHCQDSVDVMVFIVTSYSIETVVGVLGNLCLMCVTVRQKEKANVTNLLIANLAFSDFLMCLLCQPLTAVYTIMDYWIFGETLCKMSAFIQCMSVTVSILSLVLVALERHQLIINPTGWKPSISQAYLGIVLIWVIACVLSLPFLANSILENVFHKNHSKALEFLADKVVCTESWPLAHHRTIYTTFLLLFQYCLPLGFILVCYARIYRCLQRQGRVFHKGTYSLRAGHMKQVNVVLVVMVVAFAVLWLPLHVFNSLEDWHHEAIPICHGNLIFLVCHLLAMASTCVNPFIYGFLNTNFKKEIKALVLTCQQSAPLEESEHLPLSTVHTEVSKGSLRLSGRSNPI

As usually defined, the IC50 is the concentration needed to halve the response being measured. The low end stands for higher potency, the high end for lower potency. Turning to PAPLEPKYPGDDATPQQMARYAAELRRYINKLTRPRY [7255], in the assay with human Y4 receptor [1], the IC50 worked out at 0.091 nM. As to PAPLEPEYPGDDATPQQMARYAAELRRYINFLTRPRY [7257], in the assay with human Y4 receptor [1], the IC50 worked out at 0.142 nM.

On to PAPLEPTYPGDDATPQQMARYAAALRRYINILTRPRY [7269], for which the IC50 with human Y4 receptor [1] stood at 0.187 nM. In the assay with human Y4 receptor [1], PAPLEPTYPGDDATPQQMAKYAAALRRYINILTRPRY [7268] showed a half-inhibitory concentration (IC50) of 0.127 nM. As to GAPLEPHYPGDDATPQQMARYAAELRRYINKLTRPRY [4057899], the 50% inhibitory concentration (IC50) with human Y4 receptor [2] was found to be 0.064 nM. PAPLEPEYPGDNATPEQMARYAAELRRYINKLTRPRY [7254]: in the assay with human Y4 receptor [1], the 50% inhibitory concentration (IC50) is 0.109 nM. Take PAPLEPEYPGDDATPQQMARYAAELRRYINILTRPRY [7256]: the IC50 in the assay with human Y4 receptor [1] turned out to be 0.132 nM. In the assay with human Y4 receptor [1], PAPLEPTYPGDDATPQQMARYAAELRRYINKLTRPRY [7258] gave a half-inhibitory concentration (IC50) of 0.068 nM.

PAPLEPKYPGDNATPEQMARYAAALRRYINMLTRPRY [7248] came in with a half-inhibitory concentration (IC50) with human Y4 receptor [1] of 0.131 nM. Still for that read-out and setting: with PAPLEPTYPGDDATPQQMARYAAELRRYINILTRPRY [7271] the figure was 0.22 nM; with PAPLEPVYPGDNATPEQMARYAAALRRYINKLTRPRY [7243], 0.058 nM; with PAPLEPTYPGDDATPQQMAKYAAELRRYINILTRPRY [7270], 0.171 nM. AAPLEPTYPGDDATPQQMARYAAELRRYINFLTRPRY [7274]: the IC50 with human Y4 receptor [1] is 0.107 nM. On to PAPLEPTYPGDDATPQQMARYAAELRRYINFLTRPRY [7259], for which the concentration for half-maximal inhibition (IC50) with human Y4 receptor [1] stood at 0.075 nM. As to YAPLEPEYPGDDATPQQMARYAAELRRYINKLTRPRY [4058053], the IC50 with human Y4 receptor [2] stood at 0.042 nM.

HAPLEPHYPGDNATPEQMARYAAELRRYINKLTRPRY [4057902] showed a 50% inhibitory concentration (IC50) with human Y4 receptor [2] of 0.064 nM.

In the assay with human Y4 receptor [1], PAPLEPTYPGDNATPEQMAKYAAELRRYINKLTRPRY [7252] showed a half-inhibitory concentration (IC50) of 0.082 nM. APLEPVYPGDNATPEQNLAQYAADLRRYINMLTRPRY [4055398] had a half-inhibitory concentration (IC50) in the assay with human Y4 receptor [1] of 0.15 nM.

APLEPVYPGDDATPQQMAQYYAELRHYLNLVTRPRY [4055248]: the IC50 in the assay with human Y4 receptor [1] was 0.38 nM. For PAPLEPSYPGDNATPEQLAHYYSELRRYINKLTRPRY [4057781], the concentration for half-maximal inhibition (IC50) with human Y4 receptor [2] turned out to be 0.132 nM. For PLEPFYPGDDATPQQMAQYAAALRRYINMLTRPRY [4055287], the concentration for half-maximal inhibition (IC50) in the assay with human Y4 receptor [1] is 0.5 nM. As for APLEPEYPGDDATPEQMAEYAADLRRYINMLTRPRY [4055407], in the assay with human Y4 receptor [1], the half-maximal inhibitory concentration (IC50) came out at 0.29 nM. Same read-out and setting: then APLEPVYPGDNATPEQMAQYAADLMRYINMLTRPRY [4054981], with 0.38 nM. For APLEPVYPGDNATPEQMAQYAADLRRYINMLTRPHY [4054987], the IC50 with human Y4 receptor [1] was 0.72 nM. On the same count and under the same terms, then APLEPVYPGDNATPEQMAQYAADLRRYIDMLTRPRY [4055403], with 0.5 nM.

Regarding APPEPVYPGDDATPEQMAEYVADLRRYINMLTRPRY [4055405], in the assay with human Y4 receptor [1], the IC50 worked out at 0.24 nM. Regarding APLEPVYPGDNATPEQMAQYAADLRRYINMLTRPQY [4054977], the concentration for half-maximal inhibition (IC50) in the assay with human Y4 receptor [1] was 1.8 nM. In the assay with human Y4 receptor [1], APLEPVYPGDNATPEQMAQYAADLRRYINMLTRPMY [4054976] gave a 50% inhibitory concentration (IC50) of 1.4 nM. On to APLEPVYPGDNATPEQLAQYAADLRKYINLLTRPRY [4055549], for which, in the assay with human Y4 receptor [1], the half-inhibitory concentration (IC50) is 0.2 nM.

APLEPVYPGDNATPEQRAQYAADLRRYINTLTRPRY [6807] came in with an IC50 with human Y4 receptor [3] of 0.19 nM. Molecule APLEPVYPGDNATPEQMNRYYASLRHYLNLVTRPRY [4054985] returned an IC50 in the assay with human Y4 receptor [1] of 0.17 nM. In turn, APLEPVYPGDDATPQQMAQYYASLRHYLNLVTRPRY [4055247] displayed a concentration for half-maximal inhibition (IC50) with human Y4 receptor [1] of 0.3 nM. In the case of APLEPVYPGDNATPEQMAQYYASLRHYLNLVTRPRY [4055245], the IC50 in the assay with human Y4 receptor [1] was found to be 0.5 nM. On to APLEPVYPGDNATPEQMAQYYASLQHYLNLVTRPRY [4055246], for which the IC50 in the assay with human Y4 receptor [1] amounted to 0.46 nM. Take APLEPVYPGDNATPEQMAQYAADLNLRYINMLTRPRY [4054990]: the IC50 with human Y4 receptor [1] stood at 0.67 nM. Molecule AAPLEPHYPGDNATPEQMAKYAAALRRYINKLTRPRY [4057755] yielded a concentration for half-maximal inhibition (IC50) with human Y4 receptor [2] of 0.145 nM. In turn, AAPLEPHYPGDNATPEQMAKYAAELRRYINKLTRPRY [4057765] gave an IC50 with human Y4 receptor [2] of 0.075 nM. PAPLEPTYPGDNATPEQMAKYAAALRRYINMLTRPRY [7250]: the IC50 with human Y4 receptor [1] was 0.099 nM. With PAPLEPTYPGDNATPEQMAKYAAELRRYINMLTRPRY [7251], the IC50 with human Y4 receptor [1] was 0.096 nM. Molecule PAPLEPTYPGDNATPEQMAKYAAELRRYINFLTRPRY [7253] returned an IC50 with human Y4 receptor [1] of 0.095 nM. For the molecule PAPLEPTYPGDNATPEQMARYAAALRRYINMLTRPRY [7249], the IC50 with human Y4 receptor [1] turned out to be 0.089 nM. In the assay with human Y4 receptor [1], PAPLEPVYPGDNATPEQIARYAAALRRYINKLTRPRY [7244] registered a half-inhibitory concentration (IC50) of 0.106 nM.

KPLEPVYPGDDATPQQMAQYAAELRRYINMLTRPRY [4055197] returned an IC50 with human Y4 receptor [1] of 0.62 nM. For the molecule KPLEPVYPGDDATPQQMAQYAAELRRYINMLTRPRY [4055196], the concentration for half-maximal inhibition (IC50) in the assay with human Y4 receptor [1] is 0.33 nM. In the assay with human Y4 receptor [1], KPLEPVYPGDNATPEQMAQYAADLRRYINMLTRPRY [4055292] showed an IC50 of 0.4 nM. On to APLEPVYPGDDATPEQMAEYAADLRRYINMLTRPRY [4055406], for which the IC50 with human Y4 receptor [1] worked out at 0.17 nM.

In the case of APLEPFYPGDNATPEELVKYYASLRRYINMLTRPRY [6846], the IC50 in the assay with human Y4 receptor [3] was 0.15 nM. In the assay with human Y4 receptor [3], AAPLEPVYPGDNATPEELNRYYASLRRYINMLTRPRY [6671] displayed an IC50 of 0.11 nM. APLEPHYPGDNATPEQMAKYAAELRRYINKLTRPRY [4057764] had an IC50 in the assay with human Y4 receptor [2] of 0.094 nM. Molecule APLEPVYPGDNATPEQMARYAAALRRYINMLTRPRY [7242] had an IC50 with human Y4 receptor [1] of 0.14 nM. The molecule APLEPVYPGDNATPEQMAEYAADLRRYINMLTRPRY [4055524] came in with an IC50 with human Y4 receptor [1] of 0.3 nM. Consider APLEPVYPGDNATPEQMAQYAADLRRYINLLTRPRY [4055399], for which the half-maximal inhibitory concentration (IC50) with human Y4 receptor [1] was 0.28 nM. APLEPVYPGDDATPEQMAQYAAELRRYINMLTRPRY [4055195] came in with an IC50 with human Y4 receptor [1] of 0.86 nM. On to APLEPVYPGDNATPEQMAHYAADLRRYINMLTRPRY [4055525], for which, in the assay with human Y4 receptor [1], the 50% inhibitory concentration (IC50) amounted to 0.11 nM. Consider APLEPVYPGDNATPEQMAKYAADLRRYINMLTRPRY [compound of SEQ ID NO:224 (Lys 19, code 4055291)], for which, in the assay with human Y4 receptor [1], the half-inhibitory concentration (IC50) is 0.32 nM.
